Test results: the RNAGym collection of RNA variant scans (doi:10.7554/elife.90254)

B1: LINE1-full (parent)
chain: UACGUAGGUGGUUUUCCCCUGAUAGUGCUAAGGGGGCCUGGAAGUUUGGACUGGGCAGAGCUCAACACAGCGUGGCAAAGUGGCUGUGGCUAGACUGCCUCUCUGGAUUCCUCGUCACUCAGCAGGGCAUCUCUGAGAGAAAUGCC

Variants of: B1
Assay: self-cleavage, relative activity (ratio to wild type); higher = more cleavage; in vitro, sequencing; the parent is a self-cleaving ribozyme

Variant | self-cleavage
U12G G21A | 1.19
U12G G32C | 1.04
U12G G34U | 2.48
U12G G36A | 0.22
U12G G44U | 1.1
U12G G54A | 0.63
U12G G58A | 0.11
U12G G70A | 0.07
U12G G89A | 0.14
U12G G105U | 0.67
U12G G139A | 0.95
U12G U14A | 0.44
U12G U15C | 0.9
U12G U20A | 1.08
U12G U23C | 1.32
U12G U39A | 1.05
U12G U45A | 1.3
U12G U47A | 0.95
U12G U73A | 1.68
U12G U73C | 1.54
U12G U81A | 2.33
U12G U81G | 0.68
U12G U85A | 0.22
U12G U85G | 0.21

Variant | self-cleavage
U12G U87A | 0.09
U12G U87C | 0.16
U12G U91C | 1.02
U12G U96C | 0.27
U12G U100C | 1.33
U12G U102C | 0.59
U12G U104A | 1.76
U12G U108A | 0.77
U12G U108C | 1.52
U12G U109A | 1.47
U12G U119G | 0.8
U12G U130C | 1.43
U12G U130G | 0.77
U12G U134C | 1.19
U12G U143A | 0.59
U13A A22G | 1.05
U13A A30G | 0.97
U13A A31C | 1.52
U13A A43G | 0.96
U13A A50U | 0.58
U13A A57G | 0.51
U13A A57U | 0.06
U13A A59G | 0.07
U13A A65G | 0.08

Variant | self-cleavage
U13A A65U | 0.09
U13A A78G | 0.84
U13A A94G | 0.19
U13A A121G | 0.88
U13A A124G | 0.97
U13A A124U | 0.98
U13A A129G | 1.2
U13A A129U | 0.81
U13A A136G | 1.38
U13A A136U | 1.22
U13A A138G | 1.22
U13A A140U | 0.89
U13A A141G | 1.26
U13A C28U | 0.76
U13A C38A | 0.96
U13A C51A | 0.75
U13A C71A | 0.12
U13A C99U | 0.46
U13A C103A | 1.04
U13A C110A | 0.84
U13A C133A | 0.97
U13A C133U | 0.67
U13A G21U | 0.47
U13A G34A | 1.13

Variant | self-cleavage
U13A G35A | 0.65
U13A G54U | 0.51
U13A G55A | 0.21
U13A G60C | 0
U13A G114A | 1.03
U13A G126A | 1.08
U13A U15A | 0.59
U13A U20C | 1.03
U13A U39C | 0.61
U13A U45C | 1.01
U13A U46C | 0.77
U13A U47C | 0.59
U13A U52C | 1.78
U13A U87A | 0.07
U13A U87C | 0.16
U13A U96A | 0.05
U13A U100A | 0.59
U13A U100C | 1.28
U13A U102C | 0.84
U13A U102G | 0.41
U13A U104A | 0.94
U13A U104C | 1.51
U13A U109A | 0.28
U13A U112A | 0.45

Variant | self-cleavage
U13A U112C | 0.9
U13A U119A | 1.06
U13A U130A | 1.15
U13A U134A | 0.51
U13A U134G | 1.34
U13A U143C | 1.51
U13C A22G | 1.11
U13C A24G | 1.16
U13C A31C | 0.97
U13C A31G | 0.84
U13C A42G | 1.19
U13C A42U | 0.88
U13C A50G | 0.63
U13C A64G | 0.35
U13C A65C | 0.15
U13C A65U | 0.2
U13C A67U | 0.16
U13C A69G | 0.5
U13C A79G | 1.25
U13C A79U | 1.53
U13C A92G | 0
U13C A92U | 0.68
U13C A94C | 0.11
U13C A94U | 0.42

Variant | self-cleavage
U13C A107U | 1.14
U13C A124C | 1.67
U13C A124U | 1.28
U13C A129G | 1.52
U13C A129U | 1.13
U13C A138G | 1.6
U13C A141C | 1.59
U13C A141G | 1.18
U13C A141U | 1.57
U13C A142G | 1.3
U13C C17A | 1.4
U13C C19U | 1.01
U13C C28U | 0.64
U13C C37G | 1.03
U13C C37U | 1.33
U13C C38U | 1.15
U13C C51G | 1.44
U13C C56U | 0.15
U13C C61U | 0
U13C C63U | 0.32
U13C C68U | 0.17
U13C C99G | 0.39
U13C C110A | 1.29
U13C C111A | 1.57

Variant | self-cleavage
U13C C113A | 0.44
U13C C113U | 1
U13C C118U | 0.99
U13C C120G | 1.48
U13C C123A | 1.42
U13C C131U | 1.79
U13C C146U | 1.64
U13C G25A | 1.31
U13C G27A | 0.85
U13C G32A | 0.99
U13C G32C | 0.7
U13C G32U | 1.2
U13C G33A | 0.81
U13C G34U | 1.99
U13C G35C | 1.24
U13C G35U | 0.75
U13C G36C | 0.96
U13C G41U | 1.14
U13C G44A | 0.75
U13C G48U | 0.91
U13C G55A | 0.23
U13C G55U | 0.22
U13C G58C | 0.08
